Experimental data: the supplement of paper PMC10567573

B1: ANKRD9 (parent)
chain: VGAAGSARQELLGDRPRWQRLLGE
B2: KLHL14 (parent)
chain: NETGYLSSVECYNLETNEWRYVSS

Variants of: B1
Experiment: protein stability index of a GFP-peptide fusion (GPS, HEK-293T) (PSI 1-6); higher = more stable
Conditions: c terminus: a fixed tail appended
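Further: lentivirally expressed fusions sorted by FACS into six bins by GFP to DsRed ratio, PSI derived from sequencing read proportions per bin multiplied by bin number.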

Protein stability index of substitutions, site by site:
L21: A 3.28; D 4.72; G 2.93; H 2.86; T 3.13; N 3.71; M 3.03; F 2.68; I 2.93; E 4.67
Q19: S 2.91; P 3.79; M 3.26; G 2.94; I 2.98; F 2.51; Y 2.59; V 2.9; T 2.49
P16: E 4.72; N 3.88; S 3.16; A 3.68; L 3.12; Y 3.28
L12: Y 3.21; N 3.43; G 3.79; R 2.12; W 2.35; E 3.7; V 2.49; P 3.55; K 3.95; Q 3.27; H 3.6
A3: P 3.58; I 3.48; N 3.19; S 2.78; V 3.89; C 1.52; R 3.06; Q 3; H 2.91; E 3.55
A7: P 2.98; V 2.73; W 2.53; K 2.94; Y 2.43; M 3.87; E 5; F 2.49; I 3.49; S 2.93; L 4.03; N 3.74
R17: L 2.73; Q 3.47; G 3.5; S 4.09; Y 2.37; K 3.53; V 3; I 2.83; D 3.41
L22: K 3.57; G 3.31; H 3.53; A 3.43; N 3.13; V 3.68; D 4.11; S 3.96; M 2.28
G2: N 3.82; I 2.67; W 2; F 2.57; D 3.32; E 3.29
E10: H 2.6; N 3.22; L 2.13; I 2.4; Y 3.03; P 1.62; C 2.75; M 2.63; Q 3
G5: T 2.3; Y 1.93; V 2.9; S 4; A 3; K 2.69; N 2.9; W 2.9; H 2.68; I 2.69; L 2.68; E 4.56
R20: E 2.18; Y 2.62; M 2.81; G 2.74; P 2.19; W 3.32; H 2.52; A 2.58; T 2.67; I 2.07; D 1.25; F 3.28
R8: H 3.39; S 3.47; K 3.15; Y 2.96; Q 3.37; E 4.01; W 2.35; C 3.02; T 2.76; I 3.08; P 2.94; A 2.96; L 2.92
Q9: Y 2.27; S 3.46; L 2.81; C 2.56; T 3.13; G 3.41; N 2.74; I 2.96
E24: Q 2.63; N 3.17; L 2.38; Y 2.37; A 3; V 2.45; C 2.1; R 3.26; W 2.33
G23: W 2.64; A 3.1; R 2.99; M 3.23; D 3.84; L 3.58; F 2.71; Y 2.88
L11: S 4.02; I 3.3; E 4.13; V 3.98; C 3.22; N 3.71; R 2.48; Y 3.5
D14: S 3.25; N 2.6; T 2.94; M 2.76; F 2.12; G 3.18; I 2.56; A 2.83; R 2.75; E 3.27; Q 2.35
A4: Q 4.11; T 4.35; D 3.35; P 3.39; Y 2.08; W 2.62; R 3.02
G13: N 3.55; I 2.86; E 3.92; Y 2.77; D 2.73; P 3.7; A 3.9; H 3.46
R15: I 2.73; T 3.68; L 2.51; V 3.41; H 4.05; E 3.27; N 3.6; Y 2.66; C 3.11; M 3.05
S6: D 3.8; K 2.72; L 2.49; M 3.65; R 2.62; H 2.88; Y 2.73; G 2.85
V1: P 3.62; R 2.75; C 1.95; I 2.35; H 3.33; L 2.86; Y 2.56; E 2.77; M 3.03; K 3.69; Q 3.7
W18: M 3.57; D 4.63; G 5.32; R 4.93; L 4.36; T 4.63; A 4.38; E 4.45

Variants of: B2
Experiment: as above
Conditions: c terminus: a fixed tail appended

Protein stability index, by site and new letter:
T3: D 4.12; N 3.78; H 3.12; I 3.4; M 2.78; S 3.4; L 3.08; Q 3.4; E 3.53; C 2.8; W 2.53; R 2.96; F 2.45; A 3.3; V 2.92; P 3.85; G 3.01; Y 3.21; K 2.67
G4: F 2.39; Q 3.77; Y 2.46; A 3.75; C 1.98; I 2.34; H 3.17; E 3.56; R 2.64; N 3.82; V 2.58; M 2.77; S 3.22; L 2.67; D 4; P 3.92; K 3.56; T 2.8; W 1.68
L6: I 3.24; C 3.21; F 2.87; Q 3.69; K 3.89; S 3.63; G 3.62; H 4.23; E 4.29; A 3.63; P 4.19; N 3.08; D 3.78; R 3.82; M 3.45
Y5: T 4.72; R 3.2; Q 4.24; I 4; W 2.52; E 4.24; C 3.9; K 3.41; H 4.18; V 3.8; D 4.57; A 4.24; N 4.2; F 3.71; M 3.64; L 3.46; P 4; G 4.01; S 4.16
N1: L 3.04; I 2.43; W 1.71; A 3.05; Y 2.79; P 3.49; E 3.95; T 2.83; Q 3.31; S 3.69; K 3.55; H 3.44; M 2.18; R 2.55; D 3.23; V 3.3; G 2.71; F 2.63; C 2.41
E2: I 2.37; C 2.7; T 2.67; W 3.64; S 2.78; L 2.09; N 2.78; K 2.69; P 2.72; Q 2.35; A 2.68; V 2.51; H 2.02; D 3.52; F 1.72; M 2.55; Y 1.88; R 2.49; G 2.43
